Experimental data as given in US20140322262A1.

What was measured:
FMS peptide (T4; HIV-1) = assay: SPR, FMS conjugate in DMPC liposomes
Histones = assay: Luminex AtheNA Multi-Lyte ANA Test, 0.15 µg mab per test
SS-A/Ro = assay: as above
centromere B protein = centromere B protein (UniProt P07199); assay: as above
Mab 4E10 = assay: ELISA; gp140 (19.25-1230 nM) mixed with 10 µg/ml 4E10 MAb, added to wells with 1.35 µg cardiolipin

Sequence of FMS peptide (T4; HIV-1) (P03375 656-683): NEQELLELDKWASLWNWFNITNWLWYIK
Sequence of UniProt P07199 (P07199 2-599): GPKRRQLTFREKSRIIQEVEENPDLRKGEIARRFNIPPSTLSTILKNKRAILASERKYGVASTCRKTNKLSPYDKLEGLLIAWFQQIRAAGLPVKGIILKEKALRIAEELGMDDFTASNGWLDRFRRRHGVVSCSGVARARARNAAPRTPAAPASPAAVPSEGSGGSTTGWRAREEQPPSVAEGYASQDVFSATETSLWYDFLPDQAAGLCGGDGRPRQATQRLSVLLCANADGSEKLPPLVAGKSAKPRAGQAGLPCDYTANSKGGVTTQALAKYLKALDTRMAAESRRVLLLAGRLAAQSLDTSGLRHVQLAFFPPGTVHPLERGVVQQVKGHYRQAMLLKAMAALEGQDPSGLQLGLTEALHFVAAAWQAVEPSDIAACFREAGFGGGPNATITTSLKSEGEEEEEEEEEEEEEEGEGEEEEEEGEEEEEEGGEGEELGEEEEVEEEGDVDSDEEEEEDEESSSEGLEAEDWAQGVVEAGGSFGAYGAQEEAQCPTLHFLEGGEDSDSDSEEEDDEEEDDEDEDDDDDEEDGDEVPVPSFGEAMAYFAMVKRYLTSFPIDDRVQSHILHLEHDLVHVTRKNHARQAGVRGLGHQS

Row | Substance | Kd (FMS peptide (T4; HIV-1)) [nM] | relative units based on a standard curve (relative units) (Histones) | relative units based on a standard curve (relative units) (SS-A/Ro) | relative units based on a standard curve (relative units) (centromere B protein) | IC50 (Mab 4E10) [nM]
1 | Mab 2F5 (antibody) | 0.18 | 1010 | 290 | 1780 | –
2 | Mab 4E10 (antibody) | 27 | – | 221 | – | –
3 | soluble HIV-1 Env gp140 oligomers (CON-S) | – | – | – | – | 145
4 | IgG1b12 (antibody) | – | 185 | – | 479 | –
